Legend:
[1] = substrate: OC[C@H]1O[C@H](O[C@H]2[C@H](O)[C@H](O)[C@@H](O)O[C@@H]2CO)[C@@H](O)[C@@H](O)[C@@H]1O; experiment: mannobiose hydrolysis kinetics; format: biochemical, Bacteroides thetaiotaomicron; conditions: other: most active mannobiose substrate
[2] = substrate: O=[N+]([O-])c1ccc(O[C@H]2O[C@H](CO)[C@@H](O)[C@H](O)[C@@H]2O)cc1; experiment: 4NP-Man hydrolysis kinetics; format: biochemical, Bacteroides thetaiotaomicron; conditions: other: substrate 4NP-Man
[3] = substrate: OC[C@H]1O[C@H](O[C@H]2[C@@H](O)[C@H](O)[C@@H](CO)O[C@@H]2O)[C@@H](O)[C@@H](O)[C@@H]1O; experiment: mannobiose hydrolysis kinetics; format: biochemical, Bacteroides thetaiotaomicron; conditions: other: most active mannobiose substrate, enzyme Bt2199, pH 7.0
[4] = substrate: OC[C@H]1O[C@H](O[C@@H]2[C@H](O)[C@@H](O)O[C@H](CO)[C@H]2O)[C@@H](O)[C@@H](O)[C@@H]1O; experiment: purified protein, by the assay type; conditions: other: most active mannobiose substrate, pH 7.0, 37.0 °C

B1: Bt3530 (Bacteroides thetaiotaomicron VPI-5482) (protein)
chain: MTPSVAQNTKYVNLFIGTSGDNGQVAPGAAAPFGMVCVCPDNDPRSHAGYDYAVTKVSGISVNRLSGVGCSGGGGNLRIRPVAPSQELHIKKSREKATPGYYSTAFTNGIKTELTATNAMAVERYKFPRSLSAALWIDFASTFEDVATCHYKRISETCIEGYVQAKNVCGHGCYKLYFSLNTSQPFQLEEQKETTACLTFGKKVRSVEVRIGLSALSSELASWECARWEKMDFEDVKSRTADQWEKQLSAIDVKGGKKDDRVIFYTSLYRTYLSPADVSSPDGAYLGTDGKVYISEDFRYYSNWSLWDTFRTKFPLLVLTEPAKMRDMATSLIHLYATGKKDWSTGFESTPTVRTEHAVILLLDAYRKGITNLDFRKGYAGMKQEMERLPMRSPDQKMESAYDLWAMAKIAEIIGEKADSEQYRQRSVSLFEETWKKEFMNVTPAFEVMKNNGLYQGTRWQYRWAAPQYIDKMIEWVGQDSLRLQLTYFFDHHLYNQGNEPDIHVPYLFNRLGAPEKTQQIVRSLMTEPMIHKYGGNSEFKTPYLGKAFKNAPEGYSPEMDEDDGTMSAWYVFGAMGFYPLLVGDEYYDLTSPLFDRVLLRLTNGNVLTIQTEGRKKKDAPIKSIHFNGKKIADYRISHNELIKGGELIYNYK
kcat ([1]; enzyme Bt3530, pH 7.0): 0.001 ± 8.33e-05 s⁻¹ | kcat/Km ([1]; enzyme Bt3530, pH 7.0): 1.58 M⁻¹ s⁻¹

B2: Bt2199 (Bacteroides thetaiotaomicron VPI-5482) (protein)
chain: MVTRLFFLSICFPFLLTSCQQSKKTVEFVDYVNPLMGTESTFAFSHGNTYPAVAVPWGMNFWSPQTGENGSGWMYTYTDSLMRGFRQTHQPSPWINDYGTFSIMPLAGELKMSHKERLVPFSHQQEKATPYNYSVTFNNGLQTSLSATSRGAVFEVSFPEKEDQYVVVDAYNGGSSITIEPEKRLVKGATRYNNGGVPDNFANYFMMEFSHPVIEYGTYNGDTLLHHQTDVAADYTCAYLKFDVPAGEKLTIRTASSFISPEQAAINFNREVADADVQLISGKAREQWNNYLGRVEAEGGTDEQLRTFYSCLYRTLLFPREFYEFDSQGNPVYYSPYDGNVHDGYMYTDNGFWDTFRAVHPLFTLLYPEVSERVTQSIINAYNESGFMPEWASPGHRGCMIGNNSVSLLVDAWMKGIQTVDAEKALEAMIHQTQARHAEIASVGRDGFEYYDKLGYVPYPEVPEATAKTLEYAYADWCIARFAESLGKQDIADQYYQKAPNYRNLYYPEHGFMWTKDAKGNWRDRFDATEWGGPFTEGSSWHWTWSVFHDPEGLSELMGGHEPMIARLDSMFVAPNTYNYGTYGFVIHEIAEMVALNMGQYAHGNQPVQHAIYLYDYIGQPWKTQYHLRNVMDKLYNSGSKGYCGDEDNGQTSAWYVFSAMGFYPVCPGMPEYAIGSPLFKKVTLHLPEGKNFVVSAADNAADRPYIRKALLNGQEFTRNYLTHDELKQGGELNLSMDSVPNQQRGTQPADFPYSYSK
kcat ([2]; enzyme Bt2199, pH 7.0): 0.105 ± 0.00483 s⁻¹ | kcat/Km ([2]; enzyme Bt2199, pH 7.0): 14 M⁻¹ s⁻¹ | kcat [3]: 40 ± 2.33 s⁻¹ | kcat/Km [3]: 60000 M⁻¹ s⁻¹

B3: Bt3773 (Bacteroides thetaiotaomicron VPI-5482) (protein)
chain: KQDYSKSEGLLQYVDPYIGSGFHGHVFVGTSVPYGMVQLGPNNIHKGWDWCSGYHYSDSILIGFSHTHLSGTGCTDLGDILIMPLNEIRTPRGNQDDIRDGYASKYSHDNEIARPEYYSLILDRYNIKAELTATDRVGFHRYTYPEGKPVSILIDLREGNGSNAYDSYIRKVDDYTVEGYRYVRGWSPSRKVYFVLKSDQKIEKFTAYDDNTPKLWDQLKVESVKSVLTFGNVKEVKIKVAISSVSCDNAAMNLQAELSHWDFDKVVKMSSDRWNKQLDKMTVESDDEAAKRVFYTAHYHTMIAPTLYCDVNGEYRGMNDMIYTDPKKANYTTLSLWDTYRALNPLMTIIQPEMVDNVINSMLSIYRQQDKLPIWPLMSGETNCMPGYSSVPVIADAYLKGFTGFDAEEALTAMKATATYEGQNGVPYVMAKGYIPADKIHEATSIAMEYAVDDWGIAAMAQKMGKTADYETFSKRAHYYKNYFDSSIHFIRPKLEDGSWRTPYDPARSIHGVGDFCEGNGWQYTFFAPQDPYGLISLFGGDKPFTSKLDSFFTNNDSMGEGASSDITGLIGQYAHGNEPSHHIAYLYTYAGEQWKTAEKVRFIMSDFYTDQPDGIIGNEDCGQMSAWYLLSAMGFYQVNPSDGVFAFGSPRFKKIEVKVRGGKVFTVEAPNNSKDNIYIQKVYLNGKPYHKSYITYDDIINGSTLKFEMGKKPAKNFGKASANRPIVLNK
Km ([4]; enzyme Bt3773): 2500 ± 370 µM | kcat ([4]; enzyme Bt3773): 0.0183 s⁻¹ | kcat/Km ([4]; enzyme Bt3773): 7.5 M⁻¹ s⁻¹

B4: Bt3858 (Bacteroides thetaiotaomicron VPI-5482) (protein)
chain: HTDQTPTKDFVDYVNPYIGNISHLLVPTYPTVHLPNSMLRVYPERGDYTSDRVNGLPVVVTSHRGSSAFNLSPVQGEVSRPIVSYSYDLENITPYSYSVYLDEADIQVEYAPSHQAGIYHISFGTEGDNALVVNTKNGKLVAEEKGVSGYQVIDNTPTKIYLYLETSQLPLRKGVLADGKVDMESKEGSAIALYYGSEKNLNLRYGISFISAEQAKKNLQRDITTYDVKAVADAGRRIWNKTLGKIVIEGGSEDEKEIFYTSLYRTYERMINLSEDGKYYSAFDGKIHEDGGVPFYTDDWIWDTYRATHPLRILIEPQKELDMIRSYIRMAEQSDRRWMPTFPEVTGDSHRMNGNHAVAVIWDAYCKGLKDFDLEAAYEACKGAITEKTLLPWLRCPLTELDKFYQEKGFFPALNPGEEETCKAVHSFERRQAVAVMLGNCYDNWCLAQIARTLNKTDDYKKFMRMSYTYRNVYNAETGFFHPKNKDGKFIEPFDYRYSGGQGARGYYGENNGWIYRWDVQHNPADLIALMGGQASFIERLNQTFNEPLGRSKFDFYHQLPDHTGNVGQFSMANEPCLHIPYLYNYAGQPWMTQKRIRVLLNQWFRNDLMGVPGDEDGGGMTAFVVFSMMGFYPVTPGSPTYNIGSPVFQSAKMEVGDGHYFEIIAENYAPDHKYIQSATLNGTPWNKPWFSHADIQNGGRLVLQMGDKPNKKWGIASDAVPPSSESLPE
Km ([4]; enzyme Bt3858): 1400 ± 170 µM | kcat ([4]; enzyme Bt3858): 40 s⁻¹ | kcat/Km ([4]; enzyme Bt3858): 28300 M⁻¹ s⁻¹ | Km ([2]; enzyme Bt3858, pH 7.0): 270 ± 65 µM | kcat ([2]; enzyme Bt3858, pH 7.0): 0.000417 ± 1.67e-05 s⁻¹ | kcat/Km ([2]; enzyme Bt3858, pH 7.0): 1.57 M⁻¹ s⁻¹

B5: Bt1769 (Bacteroides thetaiotaomicron VPI-5482) (protein)
chain: CNGSLQTADRTPVDYVNPYIGNISHLLVPTFPTIQLPNSMLRVYPERADYTSELLKGLPLIVTNHRERSAFNFSPYQGEKLRPVITYNYDNEHITPYSFDVELDDNRMKAEYALSHQSAIYRITYEADKPAYLIVNSRNGSIHANENFISGRQQLNDNTNVYVYIEAQEKPISAGILENGTIETSKDNAEGANACAAWRFADGTTTVNLRYGISFISEEQAEKNLHRELKDYNIKALAEAGRQIWNETLGRIQVEGGTEDDKTVFYSSFYRTFERPICMSEGGRYFSAFDGKVHEDNGTPFYTDDWIWDTYRAAHPLRTLIDQQKEEDIIASYLRMAEQMGNMWMPTFPEVTGDTRRMNSNHAVATVADALAKGLKVDTAKAYEACRKGIEEKTLAPWSGAPAGWLDNFYRENGYIPALRVDEPENDPNVHPFEKRQPVAVTLGTSYDQWCLSRIAQALNKKEEAEYYLKCSYNYRNLYNKETAFFHPKDKEGQWIEPFDYRFPGGMGAREYYGENNGWVYRWDVPHNVADLISLMGGNEQFIANLDRTFTEPLGRSKYAFYAKLPDHTGNVGQFSMANEPSLHVPYLYNYAGQPWKTQKRIRQMLKTWFRNDLMGIPGDEDGGGMTSFVVFSSLGFYPVTPGLPAYTIGSPLFTDAKIRLSNGAVFEIEAKNASTDNKYIQSATLNGKEWNKSWFSHDDLMSGGKLVLVMGNKPNKTWASGAEDVPPSLEIK
Km ([4]; enzyme Bt1769): 1300 ± 140 µM | kcat ([4]; enzyme Bt1769): 63.3 s⁻¹ | kcat/Km ([4]; enzyme Bt1769): 48300 M⁻¹ s⁻¹

B6: Bt1878 (Bacteroides thetaiotaomicron VPI-5482) (protein)
chain: ETKDYTQYVNTFIGAADNGHTFPGACYPFGMIQTSPVTGAVGWRYCSEYTYQDSLIWGFTQTHLNGTGCMDLGDILVMPVTGTRARAWDAYRSHFPKDKEAATPGYYTVELSDPQVKAELTASIHAALHRYTYHKADSASLLIDLQHGPAWREEQYHSQVNSCEVNWEDAQTLAGHVNNTVWVDQDYFFVMKFNRPVIDSLYLPMGETEKGKRIIATFDLKPGDELMMKVALSTTSVEGAKKNLQAEIPDWNFDGVKLAAHDEWNSYLSRMDVEGTDDEKTNFYTCFYHALIQPNQISDVDGMYRNAADSIVKAGTGTFYSTFSLWDTYRAAHPFYTLMVPERVDDFVNSLIEQGEVQGFLPIWALWGKENFCMIGNHGVSVIAEAYRKGFRGFDAERAFNMVKKTQTVSHPLKSDWEVYTKYGYFPTDLTKAESVSSTLESVYDDYAAADMARRMGKEEDAAYFAKRADYYKNLFDSQTNFMRPRKADGTWKSPFNPSDVGHAESTGGDYTEGNAWQYTWHVQHDVPGLIALFGGEEPFLNKLDSLFTVKLETTQADVTGLIGQYAHGNEPSHHVTYLYALAGRPERTQELIREIFDTQYKNKPDGLCGNDDCGQMSAWYMFSAMGFYPVDPVSGDYVFGAPQLPKIVLHLADGKTFTVIAENLSKEHKYVDSITLNGEPYTKNTISHEDILKGGTLVYKMK
Km ([4]; enzyme Bt1878): 2000 ± 380 µM | kcat ([4]; enzyme Bt1878): 0.283 s⁻¹ | kcat/Km ([4]; enzyme Bt1878): 140 M⁻¹ s⁻¹ | Km ([2]; enzyme Bt1878, pH 7.0): 900 ± 130 µM | kcat ([2]; enzyme Bt1878, pH 7.0): 0.00133 ± 8.33e-05 s⁻¹ | kcat/Km ([2]; enzyme Bt1878, pH 7.0): 1.48 M⁻¹ s⁻¹

B7: Bt3965 (Bacteroides thetaiotaomicron VPI-5482) (protein)
chain: MAQTEKLTDYVNPFVGTDGYGNVYPGAQIPFGGIQISPDTDSRFYDAASGYKYNHLTLMGFSLTHLSGTGIPDLGDFLFIPGTGEMKLEPGTHEDPDQGYRSRYSHDKEWASPNYYAVELADYGVKAEMTSGVRSGMFRFTYPESDNAFIMIDMNHTLWQSCEWSNLRMINDSTITGYKLVKGWGPERHVYFTATFSKKLTGLRFVQDKKPVIYNTSRFRSSYEAWGKNLMACISFDTKAGEEVTVKTAISAVSTDGARNNMKELDGLTFNELRAKGEALWEKELGKYTLTADRKTKETFYTSAYHAALHPFIFQDSDGQFRGLDKNIEKAEGFTNYTVFSLWDTYRALHPWFNLVQQEVNADIANSMLAHYDKSVEKMLPIWSFYGNETWCMIGYHAVSVLADMIVKEVKGFDYERAYEAMKTTAMNSNYDCLPEYREMGYVPFDKEAESVSKTLEYAYDDYCIAQAAKKLGKEDDYHYFLNRALSYQTLIDPETKYMRGRDSKGDWRTPFTPVAYQGPGSVHGWGDITEGFTMQYTWYVPQDVQGYINEAGKELFRKRLDELFTVELPDDIPGAHDIQGRIGAYWHGNEPCHHVAYLYNYLKEPWKCQKWIRTIVDRFYGNTPDALSGNDDCGQMSAWYMFNCIGFYPVAPSSNIYNIGSPCAEAITVRMSNGKNIEMTADNWSPKNLYVKELYVNGKKYDKSYLTYDDIRDGVKLRFVMSGKPNYKRAVSDEAVPPSISLPEKTMKYKSSIGF
kcat ([2]; enzyme Bt3965, pH 7.0): 0.233 ± 0.00667 s⁻¹ | kcat/Km ([2]; enzyme Bt3965, pH 7.0): 233 M⁻¹ s⁻¹ | kcat ([1]; enzyme Bt3965, pH 7.0): 1.48 ± 0.113 s⁻¹ | kcat/Km ([1]; enzyme Bt3965, pH 7.0): 183 M⁻¹ s⁻¹

From paper PMC3942423 (Nature chemical biology, 2009)
